In patent US20140087995A1 (published 2014):
Numbered stars: 1 amine (or outer) side, 2 acyl side, 3 side chain; on linkers, the order of the positions; unused ones are H or OH. Bridge positions count the residues as written; N and C are the ends. Side chains are listed from the residue outwards. Ends that are not written are not given here. * marks the point of attachment. C20 diacid = O=C(O)CCCCCCCCCCCCCCCCCCC(=O)*; C18 diacid = O=C(O)CCCCCCCCCCCCCCCCC(=O)*; C16 diacid = O=C(O)CCCCCCCCCCCCCCC(=O)*; γGlu = O=C(O)[C@H](CCC(=O)[*:2])N[*:1]; C14 diacid = O=C(O)CCCCCCCCCCCCC(=O)*

T1: human calcitonin receptor (human, UniProt P30988 25-474)
T1 construct: whole, on cells; Membranes of BHK cells stably transfected with the human calcitonin receptor (Assay VII); also called hCTR; hCT
T1 sequence (looked up): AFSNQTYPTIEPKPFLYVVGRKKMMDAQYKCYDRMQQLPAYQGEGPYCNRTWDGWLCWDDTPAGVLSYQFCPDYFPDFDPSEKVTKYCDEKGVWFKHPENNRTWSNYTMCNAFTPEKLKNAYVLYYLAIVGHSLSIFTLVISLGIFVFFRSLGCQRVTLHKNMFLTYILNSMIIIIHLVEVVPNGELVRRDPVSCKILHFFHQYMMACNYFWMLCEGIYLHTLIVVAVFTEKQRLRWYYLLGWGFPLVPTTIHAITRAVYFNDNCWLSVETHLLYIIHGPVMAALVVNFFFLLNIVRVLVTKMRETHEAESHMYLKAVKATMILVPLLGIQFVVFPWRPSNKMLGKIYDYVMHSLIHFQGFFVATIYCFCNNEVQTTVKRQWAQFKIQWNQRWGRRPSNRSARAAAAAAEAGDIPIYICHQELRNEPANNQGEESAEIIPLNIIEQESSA


Key:
[1] = molecular target: T1, human calcitonin receptor; assay: ratio of IC50 at hCTR over IC50 at hAmylin-R (SPA competition assays)
Description: The resulting pellet was resuspended, homogenized and centrifuged (20.000 rpm, 15 min) in a buffer containing 20 mM Na-HEPES and 0.1 mM EDTA (pH 7.4, buffer 2). The resulting pellet was resuspended in buffer 2 and protein concentration was measured (BCA protein Assay, Pierce). The homogenate was kept cold during the whole procedure. The membranes were kept at −80° C. until use. The assay was performed in a 384 well Optiplate (PerkinElmer) in a total volume of 40 ul. Membranes were mixed with SPA beads. Final concentration of membranes 35 ng/μL final and SPA beads was 0.05 mg/well. Test-compounds were dissolved in DMSO and further diluted in assay buffer (50 mM Hepes, pH 7.4, 1 mM CaCl2, 5 mM MgCl₂, 0.1% OA and 0.02% Tween20). […] The final mixture was incubated with shaking at 400 rpm for 120 min at 25° C. prior to centrifugation (1500 rpm, 10 min). Samples were analyzed on TopCounter™ (Packard). The IC₅₀ was calculated using (one site binding competition analysis) GraphPad Prism5 as a measure of receptor affinity.
Membranes were prepared in the following way; the cells were rinsed with PBS and incubated with Versene for approximately 5 min before harvesting. The cells were flushed with PBS and the cell-suspension was centrifuged for 5 min at 1000 rpm. Cells were homogenized (Ultrathurrax) in a buffer containing 20 mM Na-HEPES and 10 mM EDTA (pH 7.4) and centrifuged at 20.000 rpm for 15 min. The resulting pellet was resuspended, homogenized and centrifuged (20.000 rpm, 15 min) in a buffer containing 20 mM Na-HEPES and 0.1 mM EDTA (pH 7.4, buffer 2). The resulting pellet was resuspended in buffer 2 and protein concentration was measured (BCA protein Assay, Pierce). The homogenate was kept cold during the whole procedure. The membranes were kept at −80° C. until use. Assay was performed in a 384 well Optiplate (PerkinElmer) in a total volume of 40 ul. Membranes were mixed with SPA beads.

[2] = molecular target: T1, human calcitonin receptor; assay: SPA competition against 125I-calcitonin, membranes of BHK cells with human calcitonin receptor (Assay VII)
Description: Membranes were prepared in the following way; the cells were rinsed with PBS and incubated with Versene for approximately 5 min before harvesting. The cells were flushed with PBS and the cell-suspension was centrifuged for 5 min at 1000 rpm. Cells were homogenized (Ultrathurrax) in a buffer containing 20 mM Na-HEPES and 10 mM EDTA (pH 7.4) and centrifuged at 20.000 rpm for 15 min. The resulting pellet was resuspended, homogenized and centrifuged (20.000 rpm, 15 min) in a buffer containing 20 mM Na-HEPES and 0.1 mM EDTA (pH 7.4, buffer 2). The resulting pellet was resuspended in buffer 2 and protein concentration was measured (BCA protein Assay, Pierce). The homogenate was kept cold during the whole procedure. The membranes were kept at −80° C. until use. Assay was performed in a 384 well Optiplate (PerkinElmer) in a total volume of 40 ul. Membranes were mixed with SPA beads. Final concentration of membranes 35 ng/μL final and Final concentration of SPA beads was 0.05 mg/well. Test-compounds were dissolved in DMSO and further diluted in assay buffer (50 mM Hepes, pH 7.4, 1 mM CaCl2, 5 mM MgCl₂, 0.1% OA and 0.02% Tween20). […] The final mixture was incubated for 120 min with shaking at 400 rpm at 25° C. prior to centrifugation (1500 rpm, 10 min). Samples were analyzed on TopCounter™ (Packard). The […] was calculated using (one site binding competition analysis) GraphPad Prism5 as a measure of receptor affinity.

| Binder | Ratio hCT/hAmylin binding [1] | IC50 [2] |
| --- | --- | --- |
| K([γGlu-C14 diacid])CNTATCATQRLANFLRHSSPNFGAIPSSTNVGHNTY-NH2 (disulfide 2-7; N-terminus assumed; SMILES CC[C@H](C)[C@H](NC(=O)[C@H](C)NC(=O)CNC(=O)[C@H](Cc1ccccc1)NC(=O)[C@H](CC(N)=O)NC(=O)[C@@H]1CCCN1C(=O)[C@H](CO)NC(=O)[C@H](CO)NC(=O)[C@H](Cc1c[nH]cn1)NC(=O)[C@H](CCCNC(=N)N)NC(=O)[C@H](CC(C)C)NC(=O)[C@H](Cc1ccccc1)NC(=O)[C@H](CC(N)=O)NC(=O)[C@H](C)NC(=O)[C@H](CC(C)C)NC(=O)[C@H](CCCNC(=N)N)NC(=O)[C@H](CCC(N)=O)NC(=O)[C@@H](NC(=O)[C@H](C)NC(=O)[C@@H]1CSSC[C@H](NC(=O)[C@@H](N)CCCCNC(=O)CC[C@H](NC(=O)CCCCCCCCCCCCC(=O)O)C(=O)O)C(=O)N[C@@H](CC(N)=O)C(=O)N[C@@H]([C@@H](C)O)C(=O)N[C@@H](C)C(=O)N[C@@H]([C@@H](C)O)C(=O)N1)[C@@H](C)O)C(=O)N1CCC[C@H]1C(=O)N[C@@H](CO)C(=O)N[C@@H](CO)C(=O)N[C@H](C(=O)N[C@@H](CC(N)=O)C(=O)N[C@H](C(=O)NCC(=O)N[C@@H](Cc1c[nH]cn1)C(=O)N[C@@H](CC(N)=O)C(=O)N[C@H](C(=O)N[C@@H](Cc1ccc(O)cc1)C(N)=O)[C@@H](C)O)C(C)C)[C@@H](C)O) [N^ε1-[(4S)-4-carboxy-4-(13-carboxytridecanoylamino)butanoyl]-[Arg17,Pro21,Pro27,His34]-h-amylin] | 23.5 | 24.3 nM |
| K([γGlu-C16 diacid])CNTATCATQRLANFLRHSSPNFGAIPSSTNVGHNTY-NH2 (disulfide 2-7; N-terminus assumed; SMILES CC[C@H](C)[C@H](NC(=O)[C@H](C)NC(=O)CNC(=O)[C@H](Cc1ccccc1)NC(=O)[C@H](CC(N)=O)NC(=O)[C@@H]1CCCN1C(=O)[C@H](CO)NC(=O)[C@H](CO)NC(=O)[C@H](Cc1c[nH]cn1)NC(=O)[C@H](CCCNC(=N)N)NC(=O)[C@H](CC(C)C)NC(=O)[C@H](Cc1ccccc1)NC(=O)[C@H](CC(N)=O)NC(=O)[C@H](C)NC(=O)[C@H](CC(C)C)NC(=O)[C@H](CCCNC(=N)N)NC(=O)[C@H](CCC(N)=O)NC(=O)[C@@H](NC(=O)[C@H](C)NC(=O)[C@@H]1CSSC[C@H](NC(=O)[C@@H](N)CCCCNC(=O)CC[C@H](NC(=O)CCCCCCCCCCCCCCC(=O)O)C(=O)O)C(=O)N[C@@H](CC(N)=O)C(=O)N[C@@H]([C@@H](C)O)C(=O)N[C@@H](C)C(=O)N[C@@H]([C@@H](C)O)C(=O)N1)[C@@H](C)O)C(=O)N1CCC[C@H]1C(=O)N[C@@H](CO)C(=O)N[C@@H](CO)C(=O)N[C@H](C(=O)N[C@@H](CC(N)=O)C(=O)N[C@H](C(=O)NCC(=O)N[C@@H](Cc1c[nH]cn1)C(=O)N[C@@H](CC(N)=O)C(=O)N[C@H](C(=O)N[C@@H](Cc1ccc(O)cc1)C(N)=O)[C@@H](C)O)C(C)C)[C@@H](C)O) [N^ε1-[(4S)-4-carboxy-4-(15-carboxypentadecanoylamino)butanoyl]-[Arg17,Pro21,Pro27,His34]-h-amylin] | 18.5 | 10.8 nM |

Now from value to binder:

| Ratio hCT/hAmylin binding [1] | IC50 [2] | Binder |
| --- | --- | --- |
| 59.4 | 22.7 nM | K([γGlu-C18 diacid])CNTATCATQRLANFLRHSSPNFGAIPSSTNVGHNTY-NH2 (disulfide 2-7; N-terminus assumed; SMILES CC[C@H](C)[C@H](NC(=O)[C@H](C)NC(=O)CNC(=O)[C@H](Cc1ccccc1)NC(=O)[C@H](CC(N)=O)NC(=O)[C@@H]1CCCN1C(=O)[C@H](CO)NC(=O)[C@H](CO)NC(=O)[C@H](Cc1c[nH]cn1)NC(=O)[C@H](CCCNC(=N)N)NC(=O)[C@H](CC(C)C)NC(=O)[C@H](Cc1ccccc1)NC(=O)[C@H](CC(N)=O)NC(=O)[C@H](C)NC(=O)[C@H](CC(C)C)NC(=O)[C@H](CCCNC(=N)N)NC(=O)[C@H](CCC(N)=O)NC(=O)[C@@H](NC(=O)[C@H](C)NC(=O)[C@@H]1CSSC[C@H](NC(=O)[C@@H](N)CCCCNC(=O)CC[C@H](NC(=O)CCCCCCCCCCCCCCCCC(=O)O)C(=O)O)C(=O)N[C@@H](CC(N)=O)C(=O)N[C@@H]([C@@H](C)O)C(=O)N[C@@H](C)C(=O)N[C@@H]([C@@H](C)O)C(=O)N1)[C@@H](C)O)C(=O)N1CCC[C@H]1C(=O)N[C@@H](CO)C(=O)N[C@@H](CO)C(=O)N[C@H](C(=O)N[C@@H](CC(N)=O)C(=O)N[C@H](C(=O)NCC(=O)N[C@@H](Cc1c[nH]cn1)C(=O)N[C@@H](CC(N)=O)C(=O)N[C@H](C(=O)N[C@@H](Cc1ccc(O)cc1)C(N)=O)[C@@H](C)O)C(C)C)[C@@H](C)O) [N^ε1-[(4S)-4-carboxy-4-(17-carboxyheptadecanoylamino)butanoyl]-[Arg17,Pro21,Pro27,His34]-h-amylin] |
| 151 | 42.5 nM | K([γGlu-C20 diacid])CNTATCATQRLADFLRHSSPNFGAIPSSTNVGPRTY-NH2 (disulfide 2-7; N-terminus assumed; SMILES CC[C@H](C)[C@H](NC(=O)[C@H](C)NC(=O)CNC(=O)[C@H](Cc1ccccc1)NC(=O)[C@H](CC(N)=O)NC(=O)[C@@H]1CCCN1C(=O)[C@H](CO)NC(=O)[C@H](CO)NC(=O)[C@H](Cc1c[nH]cn1)NC(=O)[C@H](CCCNC(=N)N)NC(=O)[C@H](CC(C)C)NC(=O)[C@H](Cc1ccccc1)NC(=O)[C@H](CC(=O)O)NC(=O)[C@H](C)NC(=O)[C@H](CC(C)C)NC(=O)[C@H](CCCNC(=N)N)NC(=O)[C@H](CCC(N)=O)NC(=O)[C@@H](NC(=O)[C@H](C)NC(=O)[C@@H]1CSSC[C@H](NC(=O)[C@@H](N)CCCCNC(=O)CC[C@H](NC(=O)CCCCCCCCCCCCCCCCCCC(=O)O)C(=O)O)C(=O)N[C@@H](CC(N)=O)C(=O)N[C@@H]([C@@H](C)O)C(=O)N[C@@H](C)C(=O)N[C@@H]([C@@H](C)O)C(=O)N1)[C@@H](C)O)C(=O)N1CCC[C@H]1C(=O)N[C@@H](CO)C(=O)N[C@@H](CO)C(=O)N[C@H](C(=O)N[C@@H](CC(N)=O)C(=O)N[C@H](C(=O)NCC(=O)N1CCC[C@H]1C(=O)N[C@@H](CCCNC(=N)N)C(=O)N[C@H](C(=O)N[C@@H](Cc1ccc(O)cc1)C(N)=O)[C@@H](C)O)C(C)C)[C@@H](C)O) |
